Results on six proteins are retold here after paper PMC3538638, “On the Molecular Basis of D-Bifunctional Protein Deficiency Type III” (PLoS ONE, 2013).

Data set [1] deals with the molecule itself. The data set is described as follows: static light scattering (SLS); purified recombinant protein; SLS as described previously [3]; the methods name it for the native HsDH protein.
Data set [2] deals with the molecule itself. The data set can be described thus: SEC; Superdex 200 10/300 GL, 20 mM PIPES/HCl pH 6.8, 150 mM NaCl, 1 mM EDTA, 5% glycerol, 1 mM NaN3, 0.3 ml/min; retention times of wild type and variants compared.

B1: wild type 3R-hydroxyacyl-CoA dehydrogenase (DH) fragment of human MFE-2 (multifunctional enzyme type 2) (domain or fragment)
chain: MGSPLRFDGRVVLVTGAGAGLGRAYALAFAERGALVVVNDLGGDFKGVGKGSLAADKVVEEIRRRGGKAVANYDSVEEGEKVVKTALDAFGRIDVVVNNAGILRDRSFARISDEDWDIIHRVHLRGSFQVTRAAWEHMKKQKYGRIIMTSSASGIYGNFGQANYSAAKLGLLGLANSLAIEGRKSNIHCNTIAPNAGSRMTQTVMPEDLVEALKPEYVAPLVLWLCHESCEENGGLFEVGAGWIGKLRWERTLGAIVRQKNHPMTPEAVKANWKKICDFENASKPQSIQESTGSIIEVLSKIDS
notes: 3R-hydroxyacyl-CoA dehydrogenase (DH) fragment of human MFE-2 / D-bifunctional protein; also called HsDH; native HsDH; source: E. coli BL21(DE3)pLysS, pLWRP51::HsDH, purified (Ni-NTA, Superdex 200)
With B1, the “stoichiometry N” value in data set [1] worked out at 2.

B2: HsDH(T15A), patient variant of the 3R-hydroxyacyl-CoA dehydrogenase fragment of human MFE-2 (domain or fragment)
chain: MGSPLRFDGRVVLVAGAGAGLGRAYALAFAERGALVVVNDLGGDFKGVGKGSLAADKVVEEIRRRGGKAVANYDSVEEGEKVVKTALDAFGRIDVVVNNAGILRDRSFARISDEDWDIIHRVHLRGSFQVTRAAWEHMKKQKYGRIIMTSSASGIYGNFGQANYSAAKLGLLGLANSLAIEGRKSNIHCNTIAPNAGSRMTQTVMPEDLVEALKPEYVAPLVLWLCHESCEENGGLFEVGAGWIGKLRWERTLGAIVRQKNHPMTPEAVKANWKKICDFENASKPQSIQESTGSIIEVLSKIDS
notes: Made by site-directed mutagenesis of pLWRP51::HsDH; for the limits see the note of m1; also called T15A variant; source: E. coli BL21(DE3)pLysS, pLWRP51 vector, purified (Ni-NTA, Superdex 200)
B2: the binding result in data set [2] is “binds”.

B3: HsDH(E232K), patient variant of the 3R-hydroxyacyl-CoA dehydrogenase fragment of human MFE-2 (domain or fragment)
chain: MGSPLRFDGRVVLVTGAGAGLGRAYALAFAERGALVVVNDLGGDFKGVGKGSLAADKVVEEIRRRGGKAVANYDSVEEGEKVVKTALDAFGRIDVVVNNAGILRDRSFARISDEDWDIIHRVHLRGSFQVTRAAWEHMKKQKYGRIIMTSSASGIYGNFGQANYSAAKLGLLGLANSLAIEGRKSNIHCNTIAPNAGSRMTQTVMPEDLVEALKPEYVAPLVLWLCHESCEKNGGLFEVGAGWIGKLRWERTLGAIVRQKNHPMTPEAVKANWKKICDFENASKPQSIQESTGSIIEVLSKIDS
notes: Made by site-directed mutagenesis of pLWRP51::HsDH; for the limits see the note of m1; also called E232K variant; source: E. coli BL21(DE3)pLysS, pLWRP51 vector, purified (Ni-NTA, Superdex 200)
On to B3, for which the binding result in data set [2] is listed as “binds”.

B4: HsDH(W249G), patient variant of the 3R-hydroxyacyl-CoA dehydrogenase fragment of human MFE-2 (domain or fragment)
chain: MGSPLRFDGRVVLVTGAGAGLGRAYALAFAERGALVVVNDLGGDFKGVGKGSLAADKVVEEIRRRGGKAVANYDSVEEGEKVVKTALDAFGRIDVVVNNAGILRDRSFARISDEDWDIIHRVHLRGSFQVTRAAWEHMKKQKYGRIIMTSSASGIYGNFGQANYSAAKLGLLGLANSLAIEGRKSNIHCNTIAPNAGSRMTQTVMPEDLVEALKPEYVAPLVLWLCHESCEENGGLFEVGAGWIGKLRGERTLGAIVRQKNHPMTPEAVKANWKKICDFENASKPQSIQESTGSIIEVLSKIDS
notes: Made by site-directed mutagenesis of pLWRP51::HsDH; for the limits see the note of m1; also called W249G variant; source: E. coli BL21(DE3)pLysS, pLWRP51 vector, purified (Ni-NTA, Superdex 200)
As to B4, the binding result in data set [2] was “binds”.

B5: HsDH(N158D), patient variant of the 3R-hydroxyacyl-CoA dehydrogenase fragment of human MFE-2 (domain or fragment)
chain: MGSPLRFDGRVVLVTGAGAGLGRAYALAFAERGALVVVNDLGGDFKGVGKGSLAADKVVEEIRRRGGKAVANYDSVEEGEKVVKTALDAFGRIDVVVNNAGILRDRSFARISDEDWDIIHRVHLRGSFQVTRAAWEHMKKQKYGRIIMTSSASGIYGDFGQANYSAAKLGLLGLANSLAIEGRKSNIHCNTIAPNAGSRMTQTVMPEDLVEALKPEYVAPLVLWLCHESCEENGGLFEVGAGWIGKLRWERTLGAIVRQKNHPMTPEAVKANWKKICDFENASKPQSIQESTGSIIEVLSKIDS
notes: Made by site-directed mutagenesis of pLWRP51::HsDH; for the limits see the note of m1; also called N158D variant; source: E. coli BL21(DE3)pLysS, pLWRP51 vector, purified (Ni-NTA, Superdex 200)
For B5, the binding result in data set [2] was “binds”.

B6: HsDH(R248C), patient variant of the 3R-hydroxyacyl-CoA dehydrogenase fragment of human MFE-2 (domain or fragment)
chain: MGSPLRFDGRVVLVTGAGAGLGRAYALAFAERGALVVVNDLGGDFKGVGKGSLAADKVVEEIRRRGGKAVANYDSVEEGEKVVKTALDAFGRIDVVVNNAGILRDRSFARISDEDWDIIHRVHLRGSFQVTRAAWEHMKKQKYGRIIMTSSASGIYGNFGQANYSAAKLGLLGLANSLAIEGRKSNIHCNTIAPNAGSRMTQTVMPEDLVEALKPEYVAPLVLWLCHESCEENGGLFEVGAGWIGKLCWERTLGAIVRQKNHPMTPEAVKANWKKICDFENASKPQSIQESTGSIIEVLSKIDS
notes: Made by site-directed mutagenesis of pLWRP51::HsDH; for the limits see the note of m1; also called R248C variant; source: E. coli BL21(DE3)pLysS, pLWRP51 vector, purified (Ni-NTA, Superdex 200)
Regarding B6, the binding result in data set [2] is “binds”.
